Experimental data published in patent US20090192048A1, “METHOD OF PRODUCING A […] AGENT FOR BINDING A LIGAND” (priority 2005, published 2009).
Values joined by “and” are separate entries in the source; they are usually repeats but may differ in a detail not shown here. Identical values can stand only once. Ends that are not written are not given here.

Tests used:
Type in all cases: physicochemical
[1] = Retention of peptides on Greiner polypropylene V-bottom wells; settings: 400V scan; for Untreated fluorescence: unwashed; for Retained fluorescence: washed 15 minutes in 1 M NaCl in 10 mM tris-HCl (pH 8.0)
Protocol: (§1) The retention of peptides 2DOS-1 to 2DOS-16 (see above) on polypropylene and polystyrene surfaces was compared:
(§2) 5 mM tris-HCl (pH 8.0) in 75% (v/v) aqueous acetonitrile was used as the solvent for the peptides and for TAMRA.
(§3) 20 μl aliquots of 5 μM peptides 2DOS-1 to 2DOS-16 and 5 μM TAMRA were pipetted into the wells of a Costar V-bottomed polypropylene microtitre plate, a Greiner V-bottomed polypropylene microtitre plate, and a Greiner V-bottomed polystyrene microtitre plate according to the scheme shown in FIG. 26:
(§4) The peptide samples were allowed to evaporate to dryness in the dark.
(§5) The peptide samples in the top two rows of the microtitre plates were then incubated for 15 minutes at room temperature in 250 μl of 1 M NaCl in 10 mM tris-HCl (pH 8.0).
(§6) After incubation, the wash buffer was pipetted up and down eight times in the well before removing the supernatant.
(§7) The washed and untreated peptide samples were then resuspended in 50 μl of 10 mM tris-HCl (pH 8.0) in 50% (v/v) aqueous acetonitrile.
(§8) The microtitre plates were imaged at 200 μm resolution on a Typhoon Trio Plus variable mode imager (Amersham Biosciences) with the green (532 nm) laser and the 580 BP 30 filter at the PMT voltages indicated below and at normal sensitivity. The scan height was set at +3 mm and the sample was pressed during scanning.
(§9) The fluorescence images were analysed using ImageQuant TL v2003.03 (Amersham Biosciences).

[2] = Retention of peptides in flat-bottomed polypropylene wells; settings: flat-bottom wells, 500V scan; for Untreated fluorescence: unwashed; for Retained fluorescence: washed 15 minutes in 1 M NaCl in 10 mM tris-HCl (pH 8.0)
Protocol: (§10) The retention of peptides 2DOS-1 to 2DOS-16 (see above) on polypropylene wells of different geometries was investigated:
(§11) 10 mM tris-HCl (pH 8.0) in 50% (v/v) aqueous acetonitrile was used as the solvent for the peptides and for TAMRA.
(§12) 1 μl aliquots of 10 μM peptides 2DOS-1 to 2DOS-16 and 10 μM TAMRA were pipetted into the wells of a Costar V-bottomed polypropylene microtitre plate and a Greiner flat-bottomed polypropylene microtitre plate according to the following scheme as shown in FIG. 22:
as §4
(§13) The peptide samples in the top two rows of the microtitre plates were then incubated for 15′ minutes at room temperature in 250 μl of 1 M NaCl in 10 mM tris-HCl (pH 8.0).
as §6, §7
as §8, with “the platen” for “+3 mm”, “during,” for “during”
as §9

[3] = Retention of peptides 2DOS-1 to 2DOS-16 on a hydrophobic surface (polypropylene microtitre plate wells), water wash; settings: 400V scan; for Initial fluorescence (×10^3): 100 μl of 10 μM peptide before drying and washing; for Recovered fluorescence (×10^3): dried, washed ten times with 250 μl water, resuspended
Protocol: The retention of peptides 2DOS-1 to 2DOS-16 on a hydrophobic surface (the wells of a polypropylene microtitre plate) was then investigated.
as §11
100 μl aliquots of 10 μM peptides 2DOS-1 to 2DOS-16 and 10 μM TAMRA were placed in the wells of a Costar microtitre plate as shown in FIG. 13:
as §8, with “plate was” for “plates were”
The peptides were allowed to evaporate to dryness overnight in the dark and the microtitre plate was again scanned as described above.
The wells were then washed ten times with 250 μl of water.
The residual surface-bound peptides were finally resuspended in 100 μl of 10 mM tris-HCl (pH 8.0) in 50% (v/v) aqueous acetonitrile and the microtitre plate was again scanned as described above.
as §9
Quantification data (using the data from the 400V scan) is given in Table 2 and shown graphically in FIG. 15.

[4] = Retention of peptides in V-bottomed polypropylene wells; settings: V-bottom wells, 500V scan; for Untreated fluorescence: unwashed; for Retained fluorescence: washed 15 minutes in 1 M NaCl in 10 mM tris-HCl (pH 8.0)
Protocol: as §10, §11, §12, §4, §13, §6, §7
as §8, with “the platen” for “+3 mm”, “during,” for “during”
as §9

[5] = Retention of peptides on Costar polypropylene V-bottom wells; settings: 400V scan; for Untreated fluorescence: unwashed; for Retained fluorescence: washed 15 minutes in 1 M NaCl in 10 mM tris-HCl (pH 8.0)
Protocol: as §1, §2, §3, §4, §5, §6, §7, §8, §9

[6] = Retention of peptides on Greiner polystyrene V-bottom wells; settings: 400V scan; for Untreated fluorescence: unwashed; for Retained fluorescence: washed 15 minutes in 1 M NaCl in 10 mM tris-HCl (pH 8.0)
Protocol: as §1, §2, §3, §4, §5, §6, §7, §8, §9

[7] = Retention of peptides P1-1 to P1-5 on a polypropylene sheet after successive washes; settings: for Average fluorescence, control array / Corrected signal, control array: unwashed control array
Protocol: Further experiments were undertaken to investigate the retention of peptides P1-1 to, P1-5 and P2-1 to P2-2, shown in Table 3, on a polypropylene surface.
The polypropylene sheet was wiped with 50% (v/v) aqueous acetonitrile prior to use.
8× replicate 20 nl volumes of 1 μM peptides P1-1 to P1-5 and P2-1 to P2-2 and TAMRA in dimethyl sulphoxide (DMSO) were dispensed at 1 mm spacing to a 3″×1″×1 mm polypropylene sheet using the Piezorray system (PerkinElmer LAS). 500 drops were pre-dispensed using the ‘side shoot’ option and the tuning was set to 72V for 30 μs.
The slide was imaged at 10 μm resolution on a Typhoon Trio Plus variable mode imager (Amersham Biosciences) with the green (532 nm) laser and the 580 BP 30 filter at a PMT voltage of 600 V and at normal sensitivity. The scan height was set at the platen and the samples were pressed during scanning. The fluorescence image was analysed using ImageQuant TL v2003.03 (Amersham Biosciences).
The lower half of the slide (containing the test array) was then washed in 100 ml of 1 M NaCl containing 10 mM tris-HCl (pH 8.0) for one minute and were re-scanned as described above.
The same half of the slide was then washed for a second time in 100 ml of 1 M NaCl containing 10 mM tris-HCl (pH 8.0) for 30 minutes and re-scanned as described above.
The same half of the slide was then washed for a third time in 100 ml of water for 30 minutes and re-scanned as described above.

[8] = after first wash scan, slide background subtracted
[9] = after first wash: 1 M NaCl/10 mM tris-HCl (pH 8.0), one minute
[10] = after first wash: 1 M NaCl/10 mM tris-HCl (pH 8.0), one minute, background subtracted
[11] = after second wash scan, background subtracted
[12] = after second wash: 1 M NaCl/10 mM tris-HCl (pH 8.0), 30 minutes
[13] = after second wash: 1 M NaCl/10 mM tris-HCl (pH 8.0), 30 minutes, background subtracted
[14] = after third wash scan, background subtracted
[15] = after third wash: water, 30 minutes
[16] = after third wash: water, 30 minutes, background subtracted

| Substance | Percent retention [1] [%] | Untreated fluorescence [1] | Retained fluorescence [1] | Untreated fluorescence [2] | Percent retention [4] | Untreated fluorescence [4] | Retained fluorescence [4] | Percent retention [5] [%] | Average fluorescence, control array ([7]; after first wash scan) | Corrected signal, control array [7, 8] | Average fluorescence, test array [7, 9] | Corrected signal, test array [7, 10] | Average fluorescence, control array ([7]; after second wash scan) | Corrected signal, control array [7, 11] | Average fluorescence, test array [7, 12] | Corrected signal, test array [7, 13] | Average fluorescence, control array ([7]; after third wash scan) | Corrected signal, control array [7, 14] | Average fluorescence, test array [7, 15] | Corrected signal, test array [7, 16] | also measured |
| --- | --- | --- | --- | --- | --- | --- | --- | --- | --- | --- | --- | --- | --- | --- | --- | --- | --- | --- | --- | --- | --- |
| N-TAMRA-Ser-Asp- Ser-Asp-Ser-Asp- Ser-Asp-Ser-C ({TAMRA}-SDSDSDSDS) [Peptide 2DOS-11] | 2 | 3,510,896 | 86,818 | 13,960,552 | 2% | 9,705,293 | 192,272 | 2 |  |  |  |  |  |  |  |  |  |  |  |  | Percent retention [2]: 3%; Retained fluorescence [2]: 476,318; Initial fluorescence (×10^3) [3]: 26,860 ×10^3; Recovered fluorescence (×10^3) [3]: 0 ×10^3; Untreated fluorescence [5]: 5,327,435; Retained fluorescence [5]: 102,040; Percent retention [6]: 1%; Untreated fluorescence [6]: 675,269; Retained fluorescence [6]: 7,365 |
| TAMRA [reference compound] | 1 | 6,199,206 | 64,916 | 18,396,859 and 20,662,891 and 20,649,165 | 5% and 4% and 6% | 12,610,993 and 15,392,751 and 17,471,866 | 640,684 and 686,863 and 998,320 | 3 |  |  |  |  |  |  |  |  |  |  |  |  | Untreated fluorescence [5]: 11,786,211; Retained fluorescence [5]: 386,629; Percent retention [6]: 1%; Untreated fluorescence [6]: 1,051,154; Retained fluorescence [6]: 10,004 |
| N-TAMRA-Asp-Phe- Asp-Phe-Asp-Phe- Asp-C ({TAMRA}-DFDFDFD) [Peptide 2DOS-14] | 13 | 3,612,113 | 461,468 | 15,090,582 | 13% | 7,641,246 | 1,018,179 | 11 |  |  |  |  |  |  |  |  |  |  |  |  | Percent retention [2]: 4%; Retained fluorescence [2]: 670,341; Initial fluorescence (×10^3) [3]: 28,071 ×10^3; Recovered fluorescence (×10^3) [3]: 283 ×10^3; Untreated fluorescence [5]: 5,331,894; Retained fluorescence [5]: 595,959; Percent retention [6]: 9%; Untreated fluorescence [6]: 860,811; Retained fluorescence [6]: 75,304 |
| TAMRA-F-G-F-G-F-G-F-G-F-S-F-A-F-D-F-G-F ({TAMRA}-FGFGFGFGFSFAFDFGF) [Peptide P1-4] |  |  |  |  |  |  |  |  | 187,287,630 | 40,595,958 | 189,823,310 | 35,325,352 | 179,942,418 | 42,662,569 | 159,100,527 | 26,653,223 | 176,102,487 | 42,195,247 | 135,681,173 | 11,383,947 |  |
| TAMRA-F-G-F-G-F-G-F-S-F-A-F-D-F-G-F ({TAMRA}-FGFGFGFSFAFDFGF) [Peptide P1-3] |  |  |  |  |  |  |  |  | 192,743,469 | 46,051,796 | 171,197,973 | 16,700,014 | 187,310,655 | 50,030,806 | 148,725,456 | 16,278,152 | 184,219,147 | 50,311,907 | 125,717,642 | 1,420,417 |  |
| TAMRA-F-G-F-S-F-A-F-D-F-G-F ({TAMRA}-FGFSFAFDFGF) [Peptide P1-1] |  |  |  |  |  |  |  |  | 244,263,013 | 97,571,341 | 157,624,537 | 3,126,578 | 225,863,933 | 88,584,083 | 127,216,792 | −5,230,512 | 218,342,010 | 84,434,769 | 124,941,941 | 644,716 |  |
| TAMRA-F-G-F-G-F-S-F-A-F-D-F-G-F ({TAMRA}-FGFGFSFAFDFGF) [Peptide P1-2] |  |  |  |  |  |  |  |  | 200,280,129 | 53,588,457 | 170,078,218 | 15,580,260 | 196,080,891 | 58,801,042 | 135,695,639 | 3,248,336 | 185,727,868 | 51,820,628 | 126,193,156 | 1,895,931 |  |
| TAMRA-F-G-F-G-F-G-F-G-F-G-F-S-F-A-F-D-F-G-F ({TAMRA}-FGFGFGFGFGFSFAFDFGF) [Peptide P1-5] |  |  |  |  |  |  |  |  | 199,347,483 | 52,655,810 | 201,991,732 | 47,493,774 | 190,847,825 | 53,567,975 | 167,865,473 | 35,418,169 | 183,492,293 | 49,585,053 | 147,812,043 | 23,514,817 | Retention on polypropylene surface (in words) ([7]; compared among P1-1 to P1-5, chain length of 19 amino acids): highest retention |
